Target: T1, IL-6/sIL-6R complex (human, UniProt P05231 30-212; P08887 20-355, limits assumed)
T1 construct: Complex of IL-6 and soluble IL-6R; also called IL-6/sIL-6R trans-signalling complex
Assay: method not stated; value given in Example 4 and used to calculate occupancy

B1: Peptide 1 (the polypeptide of SEQ ID NO: 1 in its active dimerized form) (Fc fusion)
chain: ELLDPCGYISPESPVVQLHSNFTAVCVLKEKCMDYFHVNANYIVWKTNHFTIPKEQYTIINRTASSVTFTDIASLNIQLTCNILTFGQLEQNVYGITIISGLPPEKPKNLSCIVNEGKKMRCEWDGGRETHLETNFTLKSEWATHKFADCKAKRDTPTSCTVDYSTVYFVNIEVWVEAENALGKVTSDHINFDPVYKVKPNPPHNLSVINSEELSSILKLTWTNPSIKSVIILKYNIQYRTKDASTWSQIPPEDTASTRSSFTVQDLKPFTEYVFRIRCMKEDGKGYWSDWSEEASGITYEDRPSKAPSFWYKIDPSHTQGYRTVQLVWKTLPPFEANGKILDYEVTLTRWKSHLQNYTVNATKLTVNLTNDRYLATLTVRNLVGKSDAAVLTIPACDFQATHPVMDLKAFPKDNMLWVEWTTPRESVKKYILEWCVLSDKAPCITDWQQEDGTVHRTYLRGNLAESKCYLITVTPVYADGPGSPESIKAYLKQAPPSKGPTVRTKKVGKNEAVLEWDQLPVDVQNGFIRNYTIFYRTIIGNETAVNVDSSHTEYTLSSLTSDTLYMVRMAAYTDEGGKDGPEFTFTTPKFAQGEDKTHTCPPCPAPEAEGAPSVFLFPPKPKDTLMISRTPEVTCVVVDVSHEDPEVKFNWYVDGVEVHNAKTKPREEQYNSTYRVVSVLTVLHQDWLNGKEYKCKVSNKALPAPIEKTISKAKGQPREPQVYTLPPSREEMTKNQVSLTCLVKGFYPSDIAVEWESNGQPENNYKTTPPVLDSDGSFFLYSKLTVDKSRWQQGNVFSCSVMHEALHNHYTQKSLSLSPGK
notes: Produced in CHO/dhfr- cells; 10 N-glycosylation sites per chain; also called gp130-Fc fusion dimer
  Kd: 0.13 nM

Reference: US20220135652A1 (FERRING B V, published 2022)
